Assay results reported in US20250179200A1 (UNIVERSITY OF CHICAGO, published 2025).
Changes are numbered by the printed parent chain.

How the values were obtained:
[1] = target: T1, Growth Hormone Receptor (GHR) immobilized on a high binding plate (UniProt P10912 19-264, limits assumed); experiment: competition ELISA: Fab titrated on plate-bound GHR preincubated with 200 nM GH (the legend of 6A names B2036), anti-human Fab-HRP
T1 sequence (looked up): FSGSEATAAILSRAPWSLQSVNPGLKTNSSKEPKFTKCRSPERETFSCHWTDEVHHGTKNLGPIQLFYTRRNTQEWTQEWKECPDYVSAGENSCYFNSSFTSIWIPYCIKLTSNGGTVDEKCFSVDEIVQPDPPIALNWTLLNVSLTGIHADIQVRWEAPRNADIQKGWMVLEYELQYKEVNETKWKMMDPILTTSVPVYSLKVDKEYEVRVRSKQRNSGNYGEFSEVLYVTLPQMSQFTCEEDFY
Protocol: 200 nM of GHR was immobilized on a 96-well high binding plate (Geiner Bio) and blocked with 5% BSA overnight. […] The Fab binding to GHR was detected using HRP-conjugated anti-human (Fab)2 antibody (Jackson ImmunoResearch, 1:5000 dilution in PBST), and the signal was developed with TMB substrate.

[2] = target: T2, Human GHR-Fc-10x His (extracellular region of human growth hormone receptor fused to human Fc) (human, UniProt P10912 50-256); experiment: SPR, GHR_Fc-10xHis on Ni-NTA chip, Fab in 2-fold dilutions from 50 nM, 1:1 fit
T2 construct: Captured by its 10x His-tag on a Ni-NTA sensor chip for SPR; not shown: human Fc domain of vector pAB1200 with its linker; 10x His-tag replacing the AviTag
T2 sequence (looked up): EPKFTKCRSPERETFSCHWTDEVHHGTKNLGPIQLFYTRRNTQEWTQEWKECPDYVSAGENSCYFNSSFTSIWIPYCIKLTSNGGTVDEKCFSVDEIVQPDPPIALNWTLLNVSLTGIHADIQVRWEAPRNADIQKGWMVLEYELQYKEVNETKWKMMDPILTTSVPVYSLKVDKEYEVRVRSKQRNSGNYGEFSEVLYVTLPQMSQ
Protocol: (§1) Surface plasmon resonance (SPR) measurements were conducted in a MASS-1 (Bruker) instrument. The target GHR-Fc (50 nM) with a 10× His-tag was captured in a Ni-NTA sensor chip. […] Flow rate was 30 ul/min and temperature 20° C. Sensograms were corrected through double referencing and fitting was done with a 1:1 binding model using the Sierra Analyzer (Bruker). For epitope binning experiments, the first FAB was injected at saturating concentrations (200 nM), followed by injection a second FAB in equal molar mixture with the first FAB, and the response unit (RU) was recorded.
(§2) Target GHR_Fc (from different species) were immobilized via a 10× His-tag to a Ni-NTA sensor chip. […] Sensograms were corrected through double referencing and 1:1 binding model fit was done using Sierra Analyzer (Bruker). To reveal different epitopes on GHR, the epitope binning experiment was performed.

[3] = target: T3, Rabbit GHR_Fc with 10x His-tag (rabbit, UniProt P19941 19-264, limits assumed); experiment: as above
T3 construct: not shown: Fc domain and 10x His-tag
T3 sequence (looked up): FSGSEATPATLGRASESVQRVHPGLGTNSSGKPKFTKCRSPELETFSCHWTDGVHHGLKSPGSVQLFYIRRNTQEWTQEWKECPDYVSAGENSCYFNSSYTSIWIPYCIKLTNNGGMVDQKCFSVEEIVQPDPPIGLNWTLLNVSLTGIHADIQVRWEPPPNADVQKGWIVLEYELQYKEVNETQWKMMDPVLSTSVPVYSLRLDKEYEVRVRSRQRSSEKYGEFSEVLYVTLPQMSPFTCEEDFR
Protocol: as §1, §2

[4] = target: T4, Pig GHR_Fc with 10x His-tag (pig, UniProt P19756 19-264, limits assumed); experiment: as above
T4 construct: not shown: Fc domain and 10x His-tag
T4 sequence (looked up): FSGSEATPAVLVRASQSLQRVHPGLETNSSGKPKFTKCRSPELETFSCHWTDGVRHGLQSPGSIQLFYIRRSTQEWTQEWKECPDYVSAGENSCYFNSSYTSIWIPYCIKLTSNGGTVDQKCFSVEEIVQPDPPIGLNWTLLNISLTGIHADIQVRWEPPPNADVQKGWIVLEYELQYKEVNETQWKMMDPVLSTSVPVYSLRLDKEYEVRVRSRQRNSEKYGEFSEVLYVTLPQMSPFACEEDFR
Protocol: as §1, §2

[5] = target: T5, Cyno GHR_Fc with 10x His-tag (Cyno, UniProt A0A2K5WH01 19-262); experiment: as above
T5 construct: not shown: Fc domain and 10x His-tag
T5 sequence: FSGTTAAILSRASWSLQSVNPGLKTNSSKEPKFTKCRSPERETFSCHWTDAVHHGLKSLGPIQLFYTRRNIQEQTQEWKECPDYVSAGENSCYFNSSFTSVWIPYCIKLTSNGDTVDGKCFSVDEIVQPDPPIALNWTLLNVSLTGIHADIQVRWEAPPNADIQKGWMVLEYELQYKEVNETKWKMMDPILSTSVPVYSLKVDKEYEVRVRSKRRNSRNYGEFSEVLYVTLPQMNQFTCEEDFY
Protocol: as §1, §2

[6] = target: T6, Rat GHR_Fc with 10x His-tag (rat, UniProt P16310 19-265, limits assumed); experiment: as above
T6 construct: not shown: Fc domain and 10x His-tag
T6 sequence (looked up): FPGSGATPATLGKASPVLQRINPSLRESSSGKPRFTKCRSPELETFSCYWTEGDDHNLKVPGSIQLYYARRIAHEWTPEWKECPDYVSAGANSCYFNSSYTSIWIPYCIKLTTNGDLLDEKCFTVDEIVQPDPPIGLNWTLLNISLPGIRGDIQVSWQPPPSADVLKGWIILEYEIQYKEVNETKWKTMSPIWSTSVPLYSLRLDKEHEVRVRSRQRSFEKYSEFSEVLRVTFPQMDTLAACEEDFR
Protocol: as §1, §2

[7] = target: T7, Murine GHR_Fc with 10x His-tag (murine, UniProt P16882 25-273, limits assumed); experiment: as above
T7 construct: not shown: Fc domain and 10x His-tag
T7 sequence (looked up): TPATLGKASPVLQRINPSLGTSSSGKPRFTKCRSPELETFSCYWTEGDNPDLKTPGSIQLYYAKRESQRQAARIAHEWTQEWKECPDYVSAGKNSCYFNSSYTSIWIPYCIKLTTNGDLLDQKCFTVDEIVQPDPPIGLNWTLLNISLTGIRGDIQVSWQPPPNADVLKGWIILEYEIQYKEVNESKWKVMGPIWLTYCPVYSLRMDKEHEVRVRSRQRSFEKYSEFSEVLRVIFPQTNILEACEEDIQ
Protocol: as §1, §2

B1: GHR_TS10 Fab (Fab, V domains shown)
VH: EVQLVESGGGLVQPGGSLRLSCAASGFNFSSSYIHWVRQAPGKGLEWVAYISPSSGYTSYADSVKGRFTISADTSKNTAYLQMNSLRAEDTAVYYCARQYYGGWYGFGMDYWGQGTLVTVSS
VL: DIQMTQSPSSLSASVGDRVTITCRASQSVSSAVAWYQQKPGKAPKLLIYSASSLYSGVPSRFSGSRSGTDFTLTISSLQPEDFATYYCQQWHSYLITFGQGTKVEIKR
[1]
  EC50: 3.5 nM

B2: GHR_TS23 Fab (Fab, V domains shown)
VH: EVQLVESGGGLVQPGGSLRLSCAASGFNFYYSSIHWVRQAPGKGLEWVASIYSYSGSTSYADSVKGRFTISADTSKNTAYLQMNSLRAEDTAVYYCARQYWYYGGYFYYGIDYWGQGTLVTVSS
VL: B1 VL with W91Y, H92W, Y94T
[1]
  EC50: 3.5 nM

B3: GHR_TS40 Fab (Fab, V domains shown)
VH: EVQLVESGGGLVQPGGSLRLSCAASGFNVSYYYIHWVRQAPGKGLEWVASIYPSSGYTSYADSVKGRFTISADTSKNTAYLQMNSLRAEDTAVYYCARYYWPASYWSGYSALDYWGQGTLVTVSS
VL: B1 VL with W91Y, H92P, S93W, Y94G
[1]
  EC50: 132 nM

B4: GHR_TS23 Fab (Fab, V domains shown)
VH: B2 VH
VL: B1 VL with W91Y, H92W, Y94T
notes: Fab from the cross-species phage display selection
[2]
  Kd: 0.2 nM
  koff: 0.00017 s⁻¹
  kon: 830000 M⁻¹ s⁻¹
[3]
  Kd: 2.5 nM
  koff: 0.0014 s⁻¹
  kon: 560000 M⁻¹ s⁻¹
[4]
  Kd: 1.8 nM
  koff: 0.0012 s⁻¹
  kon: 670000 M⁻¹ s⁻¹
[5]
  Kd: 1.3 nM
  koff: 0.00038 s⁻¹
  kon: 300000 M⁻¹ s⁻¹
[6]
  Kd: 8.2 nM
  koff: 0.0031 s⁻¹
  kon: 370000 M⁻¹ s⁻¹
[7]
  Kd: 7.8 nM
  koff: 0.0051 s⁻¹
  kon: 660000 M⁻¹ s⁻¹
